For assay [1], the target named is T1, human Hsp90α (human, UniProt P07900 1-732). The experiment in a line: SEC-MALS. (In general: SEC sorts molecules by how far they enter the pores of the column.)
Assay [2] deals with T1, human Hsp90α. Kind of assay: SEC-MALS. The source holds these as a separate data set.

3 molecules from article PMC8418782 (Molecular cell, 2021) can be followed below.

What is called stoichiometry N is the number of molecules, sites or subunits per partner or assembly.

B1: human p23 (natural protein)
chain: MQPASAKWYDRRDYVFIEFCVEDSKDVNVNFEKSKLTFSCLGGSDNFKHLNEIDLFHCIDPNDSKHKRTDRSILCCLRKGESGQSWPRLTKERAKLNWLSVDFNNWKDWEDDSDEDMSNFDRFSEMMNNMGGDEDVDLPEVDGADDDSQDSDDEKMPDLE
Take B1: the “stoichiometry N” value with human Hsp90α [1] is ~0.5 p23 per Hsp90 chain (Hsp90:FKBP51:p23 2:1:1).

B2: FKBP51 ΔH7e (Δ401–457) (domain or fragment, human, UniProt Q13451 1-400, looked up)
chain: MTTDEGAKNNEESPTATVAEQGEDITSKKDRGVLKIVKRVGNGEETPMIGDKVYVHYKGKLSNGKKFDSSHDRNEPFVFSLGKGQVIKAWDIGVATMKKGEICHLLCKPEYAYGSAGSLPKIPSNATLFFEIELLDFKGEDLFEDGGIIRRTKRKGEGYSNPNEGATVEIHLEGRCGGRMFDCRDVAFTVGEGEDHDIPIGIDKALEKMQREEQCILYLGPRYGFGEAGKPKFGIEPNAELIYEVTLKSFEKAKESWEMDTKEKLEQAAIVKEKGTVYFKGGKYMQAVIQYGKIVSWLEMEYGLSEKESKASESFLLAAFLNLAMCYLKLREYTKAVECCDKALGLDSANEKGLYRRGEAQLLMNEFESAKGDFEKVLEVNPQNKAARLQISMCQKKAKE
With B2, the binding result with human Hsp90α [2] is on record as “binds”.

B3: FKBP51 N402K (natural protein, human, UniProt Q13451 1-457, looked up)
chain: MTTDEGAKNNEESPTATVAEQGEDITSKKDRGVLKIVKRVGNGEETPMIGDKVYVHYKGKLSNGKKFDSSHDRNEPFVFSLGKGQVIKAWDIGVATMKKGEICHLLCKPEYAYGSAGSLPKIPSNATLFFEIELLDFKGEDLFEDGGIIRRTKRKGEGYSNPNEGATVEIHLEGRCGGRMFDCRDVAFTVGEGEDHDIPIGIDKALEKMQREEQCILYLGPRYGFGEAGKPKFGIEPNAELIYEVTLKSFEKAKESWEMDTKEKLEQAAIVKEKGTVYFKGGKYMQAVIQYGKIVSWLEMEYGLSEKESKASESFLLAAFLNLAMCYLKLREYTKAVECCDKALGLDSANEKGLYRRGEAQLLMNEFESAKGDFEKVLEVNPQNKAARLQISMCQKKAKEHKERDRRIYANMFKKFAEQDAKEEANKAMGKKTSEGVTNEKGTDSQAMEEEKPEGHV
On to B3, for which the binding result with human Hsp90α [2] is on record as “binds”.
